The values below come from publication PMC12390807, “Developing and validating anti-ADA2 single-chain antibodies coupled to alkaline phosphatase for diagnosing pleural tuberculosis” (Frontiers in Immunology, 2025).

In this experiment the target is T1, human adenosine deaminase 2 (ADA2) (Homo sapiens, UniProt Q9NZK5).
T1 construct: adenosine deaminase 2 (ADA2), human, recombinant, produced in S2 insect cells; also called hADA2; recombinant ADA2
The experiment can be described thus: BLI; apparent dissociation constant; which partner was immobilised and the conditions are not told. The note with it: both partners purified. (In BLI a coated tip is dipped into the sample, and binding shifts an interference pattern.)

T1 sequence (Q9NZK5 30-511): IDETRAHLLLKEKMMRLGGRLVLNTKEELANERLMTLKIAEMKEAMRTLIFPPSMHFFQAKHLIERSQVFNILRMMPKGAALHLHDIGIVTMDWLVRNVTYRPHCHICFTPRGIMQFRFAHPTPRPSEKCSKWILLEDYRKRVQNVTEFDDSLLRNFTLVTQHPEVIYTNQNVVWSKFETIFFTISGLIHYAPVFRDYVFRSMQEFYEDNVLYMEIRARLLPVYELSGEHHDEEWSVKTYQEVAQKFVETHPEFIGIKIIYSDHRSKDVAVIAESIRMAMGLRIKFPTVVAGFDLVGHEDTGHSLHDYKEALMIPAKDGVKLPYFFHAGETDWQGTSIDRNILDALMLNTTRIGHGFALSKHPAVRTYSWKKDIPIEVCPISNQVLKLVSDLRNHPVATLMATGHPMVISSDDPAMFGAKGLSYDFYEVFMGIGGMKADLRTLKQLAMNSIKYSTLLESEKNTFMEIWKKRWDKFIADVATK

B1: H11 anti-ADA2 scFv-AP (single-chain antibody fused with bacterial alkaline phosphatase) (scFv, V domains shown)
VH: EVQLLESGGGLVQPGGSLRLSCAASGFTFSSYSMHWVRQAPGKGLEWVSSIWGVNGETDYADSVKGRFTISRDNSKNTLYLQMNSLRAEDTAVYYCAADWSLDYWGQGTLVTVSS
VL: EIVLTQSPGTLSLSPGERATLSCRASQSVSSSYLAWYQQKPGQAPRLLIYGASSRATGVPDRFSGSGSGTDFTLTISRLEPEDFAVYYCQQSSSYPWTFGQGTKVEIK
notes: The clone name H11 appears only in the ELISA methods; also called H11 scFv-AP; sc-anti-ADA2 alkaline phosphatase fusion protein; source: E. coli XL1-Blue (pAK600H vector), purified (Nickel Sepharose HiTrap / Ni-NTA Chelating Sepharose)
Turning to B1, the Kd was under 0.01 µM.
